In patent US20250076311A1 (Chugai, published 2025):
Where a chain is given by its changes, count along the chain named. Names may count otherwise. Each block holds one binder with its values, some of them ahead of it.

How the values were obtained:
Test in all cases: SPR (Biacore), 25C, FcgR bound per antibody captured
[1] = molecular target: T1, cynomolgus monkey FcγRIIa1 extracellular domain, His-tagged (cynomolgus monkey)
T1 construct: also called cyno FcgRIIa1
T1 chain: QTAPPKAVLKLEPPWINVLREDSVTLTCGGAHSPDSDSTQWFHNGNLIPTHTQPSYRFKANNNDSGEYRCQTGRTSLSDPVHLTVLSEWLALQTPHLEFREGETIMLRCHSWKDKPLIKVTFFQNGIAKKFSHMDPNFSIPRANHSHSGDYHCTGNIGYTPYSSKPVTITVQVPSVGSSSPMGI
Method: (§1) In the next step, cross-reactivity of these substitutions to cynoFcγRs was evaluated.
(§2) The value of the amount of FcγR binding was obtained by dividing the amount of FcγR bound by the amount of each antibody captured.

[2] = molecular target: T2, cynomolgus monkey FcγRIIa2 extracellular domain, His-tagged (cynomolgus monkey)
T2 construct: also called cyno FcgRIIa2
T2 chain: T1 chain with P95T, T121A, I127K, A128S, K130N, D135N, R142Q
Method: as §1, §2

[3] = molecular target: T3, cynomolgus monkey FcγRIIa3 extracellular domain, His-tagged (cynomolgus monkey)
T3 construct: also called cyno FcgRIIa3
T3 chain: T1 chain with P95T, T121A, A128S, H133P, D135N
Method: as §1, §2

[4] = molecular target: T4, cynomolgus monkey FcγRIIb extracellular domain, His-tagged (cynomolgus monkey)
T4 construct: also called cyno FcgRIIb
T4 chain: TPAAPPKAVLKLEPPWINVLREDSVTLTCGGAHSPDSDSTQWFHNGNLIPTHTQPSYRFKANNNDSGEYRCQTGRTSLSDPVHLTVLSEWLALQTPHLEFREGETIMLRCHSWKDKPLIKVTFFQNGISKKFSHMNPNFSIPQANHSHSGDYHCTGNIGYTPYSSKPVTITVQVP
Method: as §1, §2

[5] = molecular target: T5, cynomolgus monkey FcγRIIIaS extracellular domain, His-tagged (cynomolgus monkey, UniProt Q8SPW2 21-206 at identity 1.00))
T5 construct: also called cyno FcgRIIIaS
T5 chain: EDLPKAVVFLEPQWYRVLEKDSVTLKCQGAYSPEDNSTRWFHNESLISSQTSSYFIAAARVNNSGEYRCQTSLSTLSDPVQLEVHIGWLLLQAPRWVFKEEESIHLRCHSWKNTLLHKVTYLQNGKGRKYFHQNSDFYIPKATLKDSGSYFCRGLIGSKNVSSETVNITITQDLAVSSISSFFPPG
Method: as §1, §2

B1: M103205H795-SG173 / M103202L889-SK1 (antibody, human IgG1, kappa, name in EU numbering)
heavy: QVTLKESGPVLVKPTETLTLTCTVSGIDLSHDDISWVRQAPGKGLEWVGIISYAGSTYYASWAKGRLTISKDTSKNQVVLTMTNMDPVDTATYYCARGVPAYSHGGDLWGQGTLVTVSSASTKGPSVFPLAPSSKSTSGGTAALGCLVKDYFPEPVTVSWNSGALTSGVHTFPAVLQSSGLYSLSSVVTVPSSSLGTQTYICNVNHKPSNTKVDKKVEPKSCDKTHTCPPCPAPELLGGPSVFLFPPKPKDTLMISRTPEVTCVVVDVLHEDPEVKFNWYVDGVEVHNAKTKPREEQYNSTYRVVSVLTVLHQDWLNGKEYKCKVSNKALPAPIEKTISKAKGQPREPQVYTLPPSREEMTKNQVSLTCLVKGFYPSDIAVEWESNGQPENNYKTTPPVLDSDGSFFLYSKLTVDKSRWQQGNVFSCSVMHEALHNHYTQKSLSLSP
light: DIVMTQSPATLSLSPGERATLSCTSSQSVYHANWLSWFQQKPGQPPKLLIYWASTLAYGVPSRFSGSGSGTDFTLTISSLQPEDAATYYCAGGYGGGRYAFGQGTKVEIKRTVAAPSVFIFPPSDEQLKSGTASVVCLLNNFYPREAKVQWKVDNALQSGNSQESVTEQDSKDSTYSLSSTLTLSKADYEKHKVYACEVTHQGLSSPVTKSFNRGEC
notes: also called S267L
- Binding to cynoFcgRs (SG1 = 100) [1]: 13
- Binding to cynoFcgRs (SG1 = 100) [2]: 14
- Binding to cynoFcgRs (SG1 = 100) [3]: 21
- Binding to cynoFcgRs (SG1 = 100) [4]: 12
- Binding to cynoFcgRs (SG1 = 100) [5]: 24

B2: M103205H795-SG166 / M103202L889-SK1 (antibody, human IgG1, kappa, name in EU numbering)
heavy: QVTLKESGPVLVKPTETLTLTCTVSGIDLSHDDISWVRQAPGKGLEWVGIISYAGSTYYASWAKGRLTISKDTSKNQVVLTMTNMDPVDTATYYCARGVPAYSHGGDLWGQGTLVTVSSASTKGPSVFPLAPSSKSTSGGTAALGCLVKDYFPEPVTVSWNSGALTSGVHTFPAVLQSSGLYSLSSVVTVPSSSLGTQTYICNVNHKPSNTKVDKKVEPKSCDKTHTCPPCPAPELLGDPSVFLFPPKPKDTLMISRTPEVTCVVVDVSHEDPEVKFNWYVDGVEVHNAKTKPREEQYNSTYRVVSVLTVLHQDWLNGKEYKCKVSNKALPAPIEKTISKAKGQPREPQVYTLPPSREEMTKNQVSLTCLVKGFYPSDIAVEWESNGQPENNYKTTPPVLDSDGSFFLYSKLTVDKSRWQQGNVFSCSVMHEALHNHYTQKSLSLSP
light: B1 light
notes: also called G237D
- Binding to cynoFcgRs (SG1 = 100) [1]: 10
- Binding to cynoFcgRs (SG1 = 100) [2]: 10
- Binding to cynoFcgRs (SG1 = 100) [3]: 17
- Binding to cynoFcgRs (SG1 = 100) [5]: 5

B3: M103205H795-SG169 / M103202L889-SK1 (antibody, human IgG1, kappa, name in EU numbering)
heavy: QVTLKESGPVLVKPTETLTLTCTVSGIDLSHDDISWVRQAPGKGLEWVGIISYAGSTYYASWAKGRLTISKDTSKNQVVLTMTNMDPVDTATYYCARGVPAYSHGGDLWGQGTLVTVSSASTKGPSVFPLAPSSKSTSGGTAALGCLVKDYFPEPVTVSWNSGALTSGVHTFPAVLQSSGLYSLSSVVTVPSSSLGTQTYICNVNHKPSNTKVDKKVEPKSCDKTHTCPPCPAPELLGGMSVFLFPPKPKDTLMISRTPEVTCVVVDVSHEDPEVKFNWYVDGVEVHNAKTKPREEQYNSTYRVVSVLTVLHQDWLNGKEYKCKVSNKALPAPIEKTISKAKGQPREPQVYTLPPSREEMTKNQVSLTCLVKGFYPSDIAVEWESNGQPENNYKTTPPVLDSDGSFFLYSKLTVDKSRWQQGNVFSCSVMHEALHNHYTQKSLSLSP
light: B1 light
notes: also called P238M
- Binding to cynoFcgRs (SG1 = 100) [1]: 17
- Binding to cynoFcgRs (SG1 = 100) [2]: 16
- Binding to cynoFcgRs (SG1 = 100) [3]: 32
- Binding to cynoFcgRs (SG1 = 100) [4]: 22
- Binding to cynoFcgRs (SG1 = 100) [5]: 22

B4: M103205H795-SG167 / M103202L889-SK1 (antibody, human IgG1, kappa, name in EU numbering)
heavy: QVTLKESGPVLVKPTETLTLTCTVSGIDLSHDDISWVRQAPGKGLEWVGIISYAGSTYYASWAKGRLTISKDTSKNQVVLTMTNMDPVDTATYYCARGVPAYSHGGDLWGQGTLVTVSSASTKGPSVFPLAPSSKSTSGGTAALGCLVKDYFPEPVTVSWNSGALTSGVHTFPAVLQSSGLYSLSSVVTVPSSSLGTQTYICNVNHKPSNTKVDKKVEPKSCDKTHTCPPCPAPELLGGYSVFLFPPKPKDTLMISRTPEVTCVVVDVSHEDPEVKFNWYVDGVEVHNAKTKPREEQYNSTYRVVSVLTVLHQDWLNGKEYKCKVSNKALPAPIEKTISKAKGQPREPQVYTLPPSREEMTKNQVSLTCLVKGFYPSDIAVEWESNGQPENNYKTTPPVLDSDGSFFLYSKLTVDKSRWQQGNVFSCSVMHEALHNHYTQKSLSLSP
light: B1 light
notes: also called P238Y
- Binding to cynoFcgRs (SG1 = 100) [1]: 18
- Binding to cynoFcgRs (SG1 = 100) [2]: 14
- Binding to cynoFcgRs (SG1 = 100) [3]: 38
- Binding to cynoFcgRs (SG1 = 100) [4]: 22
- Binding to cynoFcgRs (SG1 = 100) [5]: 14

B9: M103205H795-SG172 / M103202L889-SK1 (antibody, human IgG1, kappa, name in EU numbering)
heavy: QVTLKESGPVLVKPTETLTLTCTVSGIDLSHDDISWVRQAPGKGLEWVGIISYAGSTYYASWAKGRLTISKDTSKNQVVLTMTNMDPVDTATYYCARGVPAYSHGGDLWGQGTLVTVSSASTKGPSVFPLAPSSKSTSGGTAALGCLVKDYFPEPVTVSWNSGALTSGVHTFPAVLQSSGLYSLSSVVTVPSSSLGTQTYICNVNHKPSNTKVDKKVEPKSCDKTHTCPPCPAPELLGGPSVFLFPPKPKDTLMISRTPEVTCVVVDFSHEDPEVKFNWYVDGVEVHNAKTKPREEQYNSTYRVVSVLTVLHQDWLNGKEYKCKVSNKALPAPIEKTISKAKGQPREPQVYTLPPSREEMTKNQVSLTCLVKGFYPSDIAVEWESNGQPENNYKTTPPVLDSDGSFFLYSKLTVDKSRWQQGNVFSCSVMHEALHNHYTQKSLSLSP
light: B1 light
notes: also called V266F
- Binding to cynoFcgRs (SG1 = 100) [1]: 14
- Binding to cynoFcgRs (SG1 = 100) [2]: 17
- Binding to cynoFcgRs (SG1 = 100) [3]: 27
- Binding to cynoFcgRs (SG1 = 100) [4]: 16
- Binding to cynoFcgRs (SG1 = 100) [5]: 31

B10: M103205H795-SG170 / M103202L889-SK1 (antibody, human IgG1, kappa, name in EU numbering)
heavy: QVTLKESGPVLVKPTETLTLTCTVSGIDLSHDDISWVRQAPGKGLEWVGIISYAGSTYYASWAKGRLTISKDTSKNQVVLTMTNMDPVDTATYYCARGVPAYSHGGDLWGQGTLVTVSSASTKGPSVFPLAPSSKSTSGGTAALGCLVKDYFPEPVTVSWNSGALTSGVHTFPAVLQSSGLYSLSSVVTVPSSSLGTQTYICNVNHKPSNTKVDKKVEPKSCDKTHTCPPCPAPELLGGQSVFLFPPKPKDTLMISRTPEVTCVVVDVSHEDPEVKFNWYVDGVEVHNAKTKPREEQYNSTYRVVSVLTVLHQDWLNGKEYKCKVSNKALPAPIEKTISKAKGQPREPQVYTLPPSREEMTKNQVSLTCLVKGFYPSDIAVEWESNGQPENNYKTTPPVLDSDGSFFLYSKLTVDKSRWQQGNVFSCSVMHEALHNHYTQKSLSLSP
light: B1 light
notes: also called P238Q
- Binding to cynoFcgRs (SG1 = 100) [1]: 16
- Binding to cynoFcgRs (SG1 = 100) [2]: 15
- Binding to cynoFcgRs (SG1 = 100) [3]: 21
- Binding to cynoFcgRs (SG1 = 100) [4]: 18
- Binding to cynoFcgRs (SG1 = 100) [5]: 12

Second part, the binder after the results:

- Binding to cynoFcgRs (SG1 = 100) [1]: 14
- Binding to cynoFcgRs (SG1 = 100) [2]: 15
- Binding to cynoFcgRs (SG1 = 100) [3]: 19
- Binding to cynoFcgRs (SG1 = 100) [4]: 16
- Binding to cynoFcgRs (SG1 = 100) [5]: 20
B5: M103205H795-SG176 / M103202L889-SK1 (antibody, human IgG1, kappa, name in EU numbering)
heavy: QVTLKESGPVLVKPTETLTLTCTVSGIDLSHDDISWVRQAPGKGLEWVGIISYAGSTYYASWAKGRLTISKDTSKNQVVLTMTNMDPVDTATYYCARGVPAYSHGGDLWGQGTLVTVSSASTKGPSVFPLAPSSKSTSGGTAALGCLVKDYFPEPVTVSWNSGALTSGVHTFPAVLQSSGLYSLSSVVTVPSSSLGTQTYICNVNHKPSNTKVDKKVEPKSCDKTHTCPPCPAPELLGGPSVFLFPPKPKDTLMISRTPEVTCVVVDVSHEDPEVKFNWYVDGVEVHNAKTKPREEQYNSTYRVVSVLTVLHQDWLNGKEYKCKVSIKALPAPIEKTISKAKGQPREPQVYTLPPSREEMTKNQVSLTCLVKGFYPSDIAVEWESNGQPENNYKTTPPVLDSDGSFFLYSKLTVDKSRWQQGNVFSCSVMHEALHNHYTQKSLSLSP
light: B1 light
notes: also called N325I

- Binding to cynoFcgRs (SG1 = 100) [1]: 19
- Binding to cynoFcgRs (SG1 = 100) [2]: 17
- Binding to cynoFcgRs (SG1 = 100) [3]: 28
- Binding to cynoFcgRs (SG1 = 100) [4]: 19
- Binding to cynoFcgRs (SG1 = 100) [5]: 48
B6: M103205H795-SG179 / M103202L889-SK1 (antibody, human IgG1, kappa, name in EU numbering)
heavy: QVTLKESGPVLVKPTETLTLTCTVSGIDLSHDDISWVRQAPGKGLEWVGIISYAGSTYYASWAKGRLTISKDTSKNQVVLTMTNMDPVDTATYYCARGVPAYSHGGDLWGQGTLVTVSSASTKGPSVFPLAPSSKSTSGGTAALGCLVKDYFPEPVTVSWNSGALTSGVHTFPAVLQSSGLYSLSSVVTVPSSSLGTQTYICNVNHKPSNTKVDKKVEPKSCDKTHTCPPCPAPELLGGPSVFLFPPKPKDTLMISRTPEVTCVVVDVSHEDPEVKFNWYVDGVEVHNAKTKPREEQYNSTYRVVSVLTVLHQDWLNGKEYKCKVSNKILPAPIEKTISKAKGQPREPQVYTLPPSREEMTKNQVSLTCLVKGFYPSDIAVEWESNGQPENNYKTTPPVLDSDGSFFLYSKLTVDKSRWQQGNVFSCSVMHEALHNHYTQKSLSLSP
light: B1 light
notes: also called A327I

- Binding to cynoFcgRs (SG1 = 100) [1]: 13
- Binding to cynoFcgRs (SG1 = 100) [2]: 13
- Binding to cynoFcgRs (SG1 = 100) [3]: 17
- Binding to cynoFcgRs (SG1 = 100) [4]: 14
B7: M103205H795-SG175 / M103202L889-SK1 (antibody, human IgG1, kappa, name in EU numbering)
heavy: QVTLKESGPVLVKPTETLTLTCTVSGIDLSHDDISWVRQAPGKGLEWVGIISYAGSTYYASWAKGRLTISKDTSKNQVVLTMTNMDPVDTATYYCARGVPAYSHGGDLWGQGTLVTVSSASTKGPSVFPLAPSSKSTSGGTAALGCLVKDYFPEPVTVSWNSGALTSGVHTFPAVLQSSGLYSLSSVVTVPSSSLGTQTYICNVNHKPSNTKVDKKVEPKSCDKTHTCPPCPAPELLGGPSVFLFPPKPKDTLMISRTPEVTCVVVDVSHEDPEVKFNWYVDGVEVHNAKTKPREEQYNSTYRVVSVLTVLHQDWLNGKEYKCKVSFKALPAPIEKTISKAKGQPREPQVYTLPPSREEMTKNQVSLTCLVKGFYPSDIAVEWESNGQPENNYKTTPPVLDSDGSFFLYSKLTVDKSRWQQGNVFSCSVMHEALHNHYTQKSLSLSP
light: B1 light
notes: also called N325F

- Binding to cynoFcgRs (SG1 = 100) [1]: 22
- Binding to cynoFcgRs (SG1 = 100) [2]: 21
- Binding to cynoFcgRs (SG1 = 100) [3]: 29
- Binding to cynoFcgRs (SG1 = 100) [4]: 26
- Binding to cynoFcgRs (SG1 = 100) [5]: 36
B8: M103205H795-SG178 / M103202L889-SK1 (antibody, human IgG1, kappa, name in EU numbering)
heavy: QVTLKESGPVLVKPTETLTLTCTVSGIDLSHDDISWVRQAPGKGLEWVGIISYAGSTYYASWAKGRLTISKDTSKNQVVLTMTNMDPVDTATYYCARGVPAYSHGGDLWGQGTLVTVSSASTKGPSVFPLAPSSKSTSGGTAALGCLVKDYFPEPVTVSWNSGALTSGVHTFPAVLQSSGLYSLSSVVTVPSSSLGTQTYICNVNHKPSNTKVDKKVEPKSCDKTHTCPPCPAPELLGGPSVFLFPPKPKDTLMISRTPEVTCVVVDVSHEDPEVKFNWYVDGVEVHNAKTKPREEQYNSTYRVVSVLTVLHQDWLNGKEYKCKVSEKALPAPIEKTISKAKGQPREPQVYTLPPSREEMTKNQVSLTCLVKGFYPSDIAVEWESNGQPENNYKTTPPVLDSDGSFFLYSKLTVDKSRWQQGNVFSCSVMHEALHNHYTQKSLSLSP
light: B1 light
notes: also called N325E
